In one data set the target is T1, Sp_0475 (Streptococcus pneumoniae, UniProt A0A0H2UNN2).
T1 sequence (A0A0H2UNN2 1-646): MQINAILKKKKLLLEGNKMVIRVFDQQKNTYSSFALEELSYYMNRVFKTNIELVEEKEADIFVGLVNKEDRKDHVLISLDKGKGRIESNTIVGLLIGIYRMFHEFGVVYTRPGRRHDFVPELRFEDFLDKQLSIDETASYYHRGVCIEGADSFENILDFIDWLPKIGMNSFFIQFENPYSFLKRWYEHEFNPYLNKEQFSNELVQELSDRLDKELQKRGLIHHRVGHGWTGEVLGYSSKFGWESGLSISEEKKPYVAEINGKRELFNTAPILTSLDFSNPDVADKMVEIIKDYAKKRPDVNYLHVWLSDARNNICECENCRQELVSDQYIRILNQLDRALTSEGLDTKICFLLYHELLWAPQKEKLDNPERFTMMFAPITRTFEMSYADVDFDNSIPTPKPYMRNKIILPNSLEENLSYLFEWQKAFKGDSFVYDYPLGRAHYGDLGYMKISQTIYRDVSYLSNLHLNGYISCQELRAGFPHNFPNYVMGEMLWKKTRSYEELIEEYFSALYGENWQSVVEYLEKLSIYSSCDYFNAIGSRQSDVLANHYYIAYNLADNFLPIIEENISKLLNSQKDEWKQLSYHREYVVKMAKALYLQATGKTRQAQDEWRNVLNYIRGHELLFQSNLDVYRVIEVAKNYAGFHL
Type of data set: biochemical.

Data set [1] has as its system CC(=O)N[C@H]1[C@H](Oc2ccc3c(C)cc(=O)oc3c2)O[C@H](COS(=O)(=O)O)[C@@H](O)[C@@H]1O. Briefly: Michaelis-Menten kinetics of hydrolysis by purified mutant. To be noted: active site; pH 7.0. Type of data set: biochemical, Streptococcus pneumoniae.
In data set [2] the test system is CC(=O)N[C@H]1[C@H](Oc2ccc([N+](=O)[O-])cc2)O[C@H](COS(=O)(=O)O)[C@@H](O)[C@@H]1O. The description is as above. Type of data set: biochemical, Streptococcus pneumoniae. To be noted: active site; pH 7.0.
Substrate in data set [3]: CC(=O)N[C@H]1[C@H](Oc2ccc([N+](=O)[O-])cc2)O[C@H](COS(=O)(=O)O)[C@@H](O)[C@@H]1O
Briefly: purified protein. As to conditions: active site; R633 interacts with the sulfate; pH 7.0.

Substrate in data set [4]: CC(=O)N[C@H]1[C@H](Oc2ccc3c(C)cc(=O)oc3c2)O[C@H](COS(=O)(=O)O)[C@@H](O)[C@@H]1O
Briefly: purified protein. As to conditions: active site; pH 7.0.

The record followed here is article PMC10570127 (The Journal of Biological Chemistry, 2023).

`CC1=N[C@@H]2[C@@H](O)[C@H](O)[C@@H](CO)O[C@@H]2S1` [GlcNAc-thiazoline] registered a Ki on Sp_0475 of 6.6 ± 0.2 mM.

Regarding “Sp_0475 (Streptococcus pneumoniae TIGR4; D309A)”, in data set [1], the Km is 1.5 ± 0.1 µM, the kcat came out at 0.007 ± 0.0001 s⁻¹ and the kcat/Km worked out at 4000 ± 1000 M⁻¹ s⁻¹. The Km in data set [2] was 4.0 ± 0.1 µM.

For the molecule “Sp_0475 (Streptococcus pneumoniae TIGR4; Y436F)”, in data set [2], the Michaelis constant (Km) worked out at 57 ± 4 µM, the catalytic constant (kcat) is 0.15 ± 0.002 s⁻¹ and the kcat/Km turned out to be 3000 ± 500 M⁻¹ s⁻¹.

B1: Sp_0475 (Streptococcus pneumoniae TIGR4) (protein)
chain: T1 sequence (A0A0H2UNN2 1-646)
As to B1, in the data set “purified protein [3]”, the Km was 250 ± 4 µM, the kcat is 65 ± 0.3 s⁻¹ and the kcat/Km turned out to be 260000 ± 80000 M⁻¹ s⁻¹. Further, in the data set “purified protein [4]”, the Km was found to be 264 ± 7 µM, the kcat worked out at 55 ± 0.4 s⁻¹ and the specificity constant (kcat/Km) stood at 210000 ± 60000 M⁻¹ s⁻¹.

As a reminder, the Ki is the dissociation constant of the complex between target and ligand, obtained from inhibition or displacement. A low value points to a stronger hold on the target. For orientation: Km means the concentration of substrate that gives half-maximal velocity. As usually defined, the kcat is the maximal rate divided by the concentration of active sites. For orientation: kcat/Km means the second-order rate constant that governs catalysis at low substrate concentration.
